Measured values from patent US20240026407A1, “MODIFICATION OF SAPONINS” (GLAXOSMITHKLINE BIOLOGICALS SA, priority 2020, published 2024).

B1: 32 (protein)
chain: MSIRLTDKASVPAVVAEMTLEEKARLVTGEFPFTTAGIKRLGIPPMRPLDGHTGINMGQLRSDMASKTLANKSVDELGEMSGPAISGFGTVITNAKDPAKRAKMAPSIQKLVQEVLDKVDELMPDGMYPGCFPPGIMQGSTWNPEVIEKEGSAVGKEMDAYKVDVCLGPNVNIHRDPLNGRLFEGYSEDPYVTATLAPYYIRGMQAEGVAADAKHFAANNQETHRQEIDERIPLRALYEIYLPGFKAAVQQGKVKTLMSAYNKINGTACALNHWLLTDVLRGEWGFEGFVVSDWGAVYDQVDAINAGNDLEMPGPLTFDKIVAAVKDGRIDEKTLDQRVANYLNVLVELPVMKGRKNAHIDREYSRKAAYDVAAEGSILLKNEGALPLNEGAKISLIGEHAKDYIICGKGSAFIDTDQATNLYDCAVETLGADKVEYGDVSADSDAAIIVVSVDGQEGSDRADLLLAPGDDQMILDAAKKAHANGKKAIVILNVTGPVEMEGWLDQVDAVLCVWLPGMEGGRATLDILTGKVNPSGKLTLTFPKHYYDCPTYGNFPGDGDEVWYGEGIYVGYRYYDKKHVEPLYPFGYGLSYTTFELSDIAIDRDVMDMDKGETVNVSVKVTNTGKVAGKEVVQVYISDEVSTLSKPLKELKGFQKVALQPGESKVVTIAIGKDQLASYDPAAKAWGSEPGYYQALVGTSSRDIAGAVRFKAVGYNPFGYGVNCSIGKIMANPAVVEAMKKYIPAHLLSDESMSSELTYFPEAKLQKIWNEKFSLAFKDKSETEKQAILDAMCAEIAKIEVI
modifications: uncultured Clostridium sp.
B2: 41 (protein, listed as Ardenticatena maritima)
chain: MKGARMQDRVETLLQSLTLDEKIKLLAGADTWHTHAIPRLGIPALKVTDGPNGVRGTQKDTRSQTSASFPVGTAMGATWNPDLVREIGEALAEEVKTKGAHVLLGPTVNMHRHPLAGRNFECFAEDPYLMARMAVAYIQGVQSQGVGACIKHYVCNDQEFERFSISAEVDERTLREIYLPPFKAAVQEAGVWTLMTAYNRVNGVYASENSHLFDILKDEWGFDGLALSDWYGTYSDRVPLERLDLEMPGPGRWMAPEKVRAALERGEITEADIDDKVRRLLRTLERVGAFEDSAPKEERSVDNPRHHEIIRRAGREAIVLLKNEDNVLPLDASRFPRLAVIGRPATEVSFQGGGSSEVNPHYVVQPLDAMRERYGEAFQMTYALGPAFYRNFPLLDTRGLRAEDGTPGKVTVRQYDNTELEGEPSKVFLAEGTQLAWFGEQISEFDLRSFSLTMSGTWTPPVSGTYTFSMATVGRGRFEFDGKTLLDWWEYIPEEQPQNFDGMVSVPWRQEEVTLELEAGREYPFRVDFAVVPGGRWRTIRLGVLPPQPADPIGEAVALAREADAAVVFVGLTPEWESEGSDRESMDLPGEQNELVARVAEANPNTIVIVNAGSPVHMPWLDKVKAVLQVWYLGQEMGNAITDVLFGEADPGGRLPTTFPKRLQDSPAYINYPGENGRVYYGERLYVGYRYYDKKEIEPLFPFGHGLSYTTFSYDALELAADQVRVGEGVDVHVTITNQGARRGQEVVQVYLHDVESSLPRPPKELKGFAKVTLEPGETRTVTIHLRPDAFAFYDDKRGAWVVEPGAFEVLVGRSAADIRLRARLDIVDKTTEALEAGNVLAG
B3: 35 (protein, listed as Verrucomicrobia bacterium)
chain: MSEPDVENRINGLLKQMSLEEKTSLLHGNSKFNTAGIKRLGIPRLHLSDGPHGVRRETEEHSWGPVGWEDDYVTYLPTGSALASTWNPALGRLFGETLGAEARHRNKDVILGPGINIVRTPVCGRNFEYFGEDPYHVGKMAAEVVRGIQNNDVAACVKHYALNNQEWNRGWVNAIVDERTLREIYLPAFEETVRAGALTFMGAYNRFRGQWCCENKYLVNDILKGEWGFDGVYLSDWGGVHSTRDSALNGLDLEMGTSDNYDEFFFARPLREAVEGGEIPESVVDDKVRRILRVMARIGALDPATRKTGARNTAAHQKAVRAIADEAMVLLKNDGVLPLDIHKTLKLAVIGENADKKHADQGGSSAIRALYEITPLEGLKRRGGDMVKITYVQGYRDTGDAAAFEPIGEPYVQTVDPKAGVRCWKVEYFNNRDLHMPPVTVRYEKSVDFDWQERSPAPNVSEDNFSARMTAEIKPTASGTHHIGLTSDDGSRLKIDGKVVIDHWGDHGEEQKDARVELVAGQTYRFEVEYYDSGKGAMLKLGWVTPDSSAADPEVVFAAALEAAREADAVLVFAGQNHRYDTEGVDRRDIRLHGRQNDLIEAVAAANPRTAVFIISGSAVEMPWIDKVPCVVQAWYAGMEVGNAAAGIVFGDVNPSGKLPITFPKRLEDVPAHSIGQYNDQDCEYREGLLVGYRHFDTRNAEPLFPFGHGLSYTKFTYGNLKVDPATLEVRVSVKNTGARKGKEVVQLYVHDVQSRLPRPVKELKGFEKVELAPGETKEVAFRLDERALAFYDADANRWVVEPGDFDILVGSSSRDIRLKGRLAYAGRKKGPL
B4: 370 (protein, listed as Rhizoctonia solani)
chain: MAPRPFKPLDVEDVISKLSLNEKTRLLAGIDNWHTYPVPRLGVPSLRFTDGPNGARGTKFFEGVPAACFPAATGLGSSWDPEFIQKVGQAIGRDCKDKGCHVLLGPTINIQRSPLGGRGFESYSEDPLLSGTLARAFIKGVQSEGVSATIKHYVTNDSEFERMSMSSELSTRALREIYLRPFELACRDPETAPWAVMTAYNRVNGLHASENKYLLDSVLRKQWGWEGMIMSDWYGTYSADASIKAGLDLEMPGPPTWRADALQRCVVAQKIRVPEIDARVREVLKLINRVAVSGIPENADETGEPKPETIDLLRQAAAHANVLLKNSESLLPISAKDVASIAVIGPNADSPVFSGGGSANLRPYKHTTALEGIAAALQDAGNKVEVQHTIGAHAHKEAPLLGVKHLKTKAGEPGYDIEWFNEDPVQNPDAKRVHYTHGTTSFAFFNDNLPGDDVLHQECWATMTAIFTPEVTGKYEFGAAATGLVDVYVDGKKIIDNSSNPVPGHVFFMTGTVEVLNTVELTAGKPAEIKLQFASPVAARTKGFTQIGAGSLSLEGRGGCRWGGGRTFEDDQGIKEAVDLAKKVDKVVLVVGLNNDWESEGYDRDNMELPRATNRLVSAVLEVNKNTAVVIISGTPVAMPWAESASTIVQSFYSGGEAGNGLADVLFGKVNPSSRLPLTFPVRDEDTPSHLNFPGQNGKVLYAEGVFVGYRHYLTYKKKVLFPFGYGLSYTQFEHSDLKLSGEIGKDSTVKVSVTVKNTGKVAGRDVVQIYVRDLVSRLDRPVKELKGFAKSSLLEPGKSETVTITLDKYAFGYFDDWAGEGRDGEGLWVAEAGDFEIVAASTSEDVGISAGISLKQSFEWL
B5: 312 (protein, listed as Thermotoga neapolitana)
chain: MEKVNEILSQLTLEEKVKLVVGVGLPGLFGNPHSRVAGAAGETHPVPRVGLPAFVLADGPAGLRINPTRENDENTYYTTAFPVEIMLASTWNRELLEEVGKAMGEEVREYGVDVLLAPAMNIHRNPLCGRNFEYYSEDPVLSGEMASSFVKGVQSQGVGACIKHFVANNQETNRMVVDTIVSERALREIYLRGFEIAVKKSKPWSVMSAYNKLNGKYCSQNEWLLKKVLREEWGFEGFVMSDWYAGDNPVEQLKAGNDLIMPGKAYQVNTERRDEIEEIMEALKEGKLSEEVLDECVRNILKVLVNAPSFKNYRYSNKPDLEKHAKVAYEAGAEGVVLLRNEEALPLSENSKIALFGTGQIETIKGGTGSGDTHPRYAISILEGIKERGLNFDEELAKTYEDYIKKMRETEEYKPRRDSWGTIIKPKLPENFLSEKEIHKLAKKNDVAVIVISRISGEGYDRKPVKGDFYLSDDETDLIKTVSREFHEQGKKVIVLLNIGSPVEVVSWRDLVDGILLVWQAGQETGRIVADVLTGRINPSGKLPTTFPRDYSDVPSWTFPGEPKDNPQKVVYEEDIYVGYRYYDTFGVEPAYEFGYGLSYTTFEYSDLNVSFDGETLRVQYRIENTGGRAGKEVSQVYIKAPKGKIDKPFQELKAFHKTRLLNPGESEEVVLEIPVRDLASFNGEEWVVEAGEYEVRVGASSRNIKLKGTFSVGEERRFKP

Assays:
[1] = Experiment 4-1: screening of glucosidases for deglycosylation with purified QS-18 (0.04 mg/ml) at pH 7.5 and room temperature; type: biochemical, Quillaja saponaria; conditions: pH 7.5, room temperature, 20 h, clarified E. coli lysate, QS-18 2150 to QS-21 1988 by LCMS/MS
Procedure: Nucleotide sequences were sub-cloned into pET24b+ for expression. 10 uL of E. coli cells (One Shot® BL21(DE3) chemically competent E. coli) were transferred to each well of a 96 well PCR plate (prechilled on ice). 10 uL autoclaved water was added to the DNA, resuspended by pipetting, and 1 uL of plasmid DNA (15-30 ng) was transferred to the competent cells. Immediately after addition, the resulting mixture was mixed by pipetting. Cells were heat shocked by placing the plate in a thermal cycler at 42° C. for 30 seconds then transferred directly to an ice bath for 2 min. 100 uL sterile Lysogeny Broth (LB) medium was added to each well containing transformed cells. The content of each plate was transferred into a 96-deep well plate pre-aliquoted with 400 uL LB and the plate was incubated at 37° C. with shaking and 85% humidity for 1 hour. After outgrowth, 500 uL of sterile LB containing 100 ug/mL kanamycin was added to the plates containing cells and plates incubated at 37° C. with shaking overnight (18 hours) with humidity control (85%).
1000 mLs of Overnight Express Media was supplemented with 1 mL kanamycin 50 mg/mL and 20 mL of 50% v/v glycerol added (50 ug/mL kanamycin final and 1% glycerol). 96-Well Assay Block 2 mL plates were aliquoted with 380 uL of media per well. Pre-inoculum (20 uL) from transformation plates was added. The plates were sealed appropriately and incubated at 37° C. at 300 with shaking for 2 h. After 2 h the temperature was lowered to 20° C. and incubation continued for 20 h.
The liquid cultures were centrifuged for 10 minutes at 4° C. The supernatant was discarded, plates blotted on an absorbent material to remove residue and the plates frozen at −80° C.
Lysis buffer was prepared according to the following protocol: • 1. Polymyxin B sulphate (0.5 mg/mL) was suspended in 100 mM potassium phosphate pH 7.5 • 2. The mixture was sonicated until polymyxin B sulphate had dissolved • 3. Lysozyme (1 mg/mL) and benzonase (0.1 uL/mL lysis buffer) were added
2 copies of each cell pellet plate were removed from −80 degC freezer and allowed to thaw. 200 uL of lysis buffer was added to each well of one copy of the cell pellet plates. Plates were shaken at room temperature for 10 mins. 190 uL of cell pellet/lysis buffer was transferred to a corresponding fresh cell pellet plate. These plates were incubated at room temperature with shaking for 2 hours. Lysate was clarified by centrifugation (10 min, 4 degC).
QS-18 was obtained by analogous methods to Example 3, collecting a QS-18 containing phenyl fraction following phenyl treatment (presence of m/z corresponding to key components was confirmed by MS and the phenyl fraction then used without further treatment). QS-18 solution was prepared by diluting aqueous QS-18 (ca 1 mg/mL) with 100 mM potassium phosphate pH 7.5 to 0.2 mg/ml. 40 uL clarified lysate was transferred into fresh 96 well PCR plates. 10 uL QS-18 solution added to each well of lysate to a final concentration of 0.04 mg/ml. Incubated at room temperature with shaking for 20 h. Quenched with 50 uL MeCN and shaken at room temperature for 10 mins. Samples were analysed by LC-MS/MS using a Waters Acquity H class coupled to a Waters Xevo Tandem Quadrupole (TQD) Mass Spectrometer.
Enzyme activity was calculated as: […]
Candidate enzymes with % conversion >0.72%, i.e. >3 S.D. above negative control, were considered to be positive hits and are listed below in Table 7. Sample results are shown in FIG. 10 for a QS-21 standard, FIG. 11 for negative control and FIG. 12 for treatment with the glucosidase of SEQ ID No. 262.

[2] = Experiment 4-2: screening of glucosidases for deglycosylation with purified QS-18 (1 mg/ml) at pH 6 and 30 deg C; type: biochemical, Quillaja saponaria; conditions: pH 6, 30 degC, 18 hrs, clarified lysate, LCMS/MS
Procedure: Lysates were prepared in an identical manner to Experiment 4-1 above, except the lysis buffer was prepared in 100 mM potassium phosphate buffer pH 6. QS-18 solution was prepared by dissolving QS-18 in 100 mM potassium phosphate buffer pH 6 (2 mg/mL).
12 uL clarified lysate was transferred into fresh 96 well PCR plates. 12 uL QS-18 solution was added (1 mg/ml final concentration), plates sealed and incubated overnight (30° C.) for 18 hrs. After quenching with 25 uL MeCN and shaking for 10 mins (RT), samples were analysed using the LC-MS/MS protocol described in Experiment 4-1 and enzyme activity determined in an analogous manner.

Molecule	Expt 4-1 % conv [1] [%]	Expt 4-2 % conv [2] [%]
B1	2.2	0.6
B2	4.0	0.7
B3	1.2	0.4
B4	1.1	0.5
B5	1.6	0.4
